Laboratory results taken from patent US6383734B1, “Method to determine inhibition of PAK3 activation of Raf-1” (Advanced Research and Technology Institute, Inc., priority 1998, dated 2002).

Legend:
[1] = target: T1, Raf-1 (Homo sapiens, UniProt P04049); assay: Raf kinase activity after co-transfection of PAK3 constructs with Raf-1 (with or without Ras[V12]) into COS-7 cells; type: cell-based
T1 construct: expressed in transfected cells; host or cells: COS-7
Procedure: (§1) B. Kinase assays. Kinase samples were assessed for their ability to phosphorylate 500 μM Raf-1 peptide (33,[…]345) (SEQ ID NO:4) in the presence of 500 μMATP (containing 2 μCi [γ-^32P]-ATP at 30° C. for 10 minutes. Incubations were analyzed by P-81 phosphocellulose paper assay. Phosphorylation of serine 338/339 in Raf-CR3 was determined by similar incubations containing 1 μg of substrate at 30° C. for 30-60 minutes. Proteins were resolved by SDS-PAGE, transferred to Immobilon-P and the dried, Ponceau S-stained membranes were autoradiographed. Raf-1 kinase activity was measured by the coupled assay method using GST-Mek 1, GST-Erk1 and myelin basic protein by the method of D. Stokoe et al., Science, 264, 1463 (1994).
F. Transfections. COS-7 cells were transfected with 10 μg of each plasmid DNA (pcEXV3 containing Ras^[V12], myc-Raf, myc-Raf-CX or pJ3H containing PAK3) by electroporation. Cells were lysed three days post-transfection in the presence of protease and phosphatase inhibitors and Raf-1 kinase activity was then examined as described by Stokoe et al., cited above. Transfection/expression efficiencies were assessed by densitometric scanning of Western blots of immunoprecipitates as well as cell lysates and data sets were normalized accordingly.

[2] = tested on: Raf-1 serine 338/339; assay: In vitro kinase assay with Raf-1 peptide and Raf-CR3 as substrates; type: biochemical, human
Procedure: as §1
D. Expression of recombinant Raf-CR3 in E. Coli. DNA sequences encoding residues 307-648 of human c-Raf-1 were amplified by polymerase chain reaction using the 5′-primer […] (SEQ ID NO:5) and the 3′-primer […] (SEQ ID NO:6). The amplified DNA was purified, digested with EcoRI and XhoI and cloned into the Stratagene pCAL-n vector. The entire Raf-CR3 coding sequence was verified by termination reaction PCR DNA sequencing. Raf-CR3 D338E339 and A338A339 substitution mutants were generated by site-directed mutagenesis using the Promega Altered SitesTM in vitro mutagenesis system. Raf-CR3-calmodulin binding protein fusions were expressed in E. coli strain BL21 (pLysS). […]

## wild type PAK3: wild type p21-activated protein kinase PAK3, expressed from plasmid in COS-7 cells
[1]
  increase of Raf-CX or Ras[V12]-inducible Raf-1 activation on co-expression: did not significantly increase

## p37: 37-kD Raf-1 serine 338/339 kinase purified from rat spleen, a proteolytically cleaved catalytic domain of PAK3
[2]; kinase purified from rat spleen, Mono-P eluate
  specific activity (Raf-1 peptide phosphorylation): 19,500 pmol/min/mg

## Recombinant PAK3: recombinant His-tagged mouse PAK3 from Sf9 cells
[2]; co-incubation with GST-Rac-GTPγS or GST-Cdc42-GTPγS, FIGS. 4c and 4d
  stimulation of Raf-1 peptide and Raf-CR3 serine 338/339 kinase activity by GTPase: stimulated up to six-fold
